Tests used:
[1] = tested on: fluorenyl-9-methoxycarbonyl (Fmoc)-SSFYSGGGC-CONH2
[2] = tested on: T1, Fmoc-Gly-Phe-Cys-NH2 (peptide 1)
T1 sequence: GFC

Substance | dispersion of the aggregate (percentage change in intensity against time) [1] | disassembly of nanoparticle aggregate [2]
Prostate Specific Antigen (PSA) | Discrimination of PSA concentration is seen after 5 min | –
trypsin | – | 8.5 nm gold particles functionalised with Fmoc-Gly-Phe-Cys-NH2 did not disassemble upon introduction of trypsin

Reference: US8318206
